Source: publication PMC7385124, “The molecular basis of thioalcohol production in human body odour” (Scientific Reports, 2020)

Molecular target: the molecule itself
Experiment: crystal structure; BsPatB, sitting drop, 0.2 M ammonium acetate pH 7.1, 20% PEG 3,350

B1: Bacillus subtilis 168 PatB (PLP-bound C-S lyase) (enzyme)
chain: MGGGFAMNFDKREERLGTQSVKWDKTGELFGVTDALPMWVADMDFRAPEAITEALKERLDHGIFGYTTPDQKTKDAVCGWMQNRHGWKVNPESITFSPGVVTALSMAVQAFTEPGDQVVVQPPVYTPFYHMVEKNGRHILHNPLLEKDGAYAIDFEDLETKLSDPSVTLFILCNPHNPSGRSWSREDLLKLGELCLEHGVTVVSDEIHSDLMLYGHKHTPFASLSDDFADISVTCAAPSKTFNIAGLQASAIIIPDRLKRAKFSASLQRNGLGGLNAFAVTAIEAAYSKGGPWLDELITYIEKNMNEAEAFLSTELPKVKMMKPDASYLIWLDFSAYGLSDAELQQRMLKKGKVILEPGTKYGPGGEGFMRLNAGCSLATLQDGLRRIKAALSENLYFQG
modifications: PLP covalently bound to Lys234 (internal aldimine)
notes: N-terminal overhang from cloning into pBADcLIC; PatB (C-S lyase, cystathionine beta-lyase activity) of Bacillus subtilis 168, full-length gene; C-terminal linker of the vector before the His10 tag; also called BsPatB; source: E. coli MC1061, pBADcLIC, purified (HisTrap)
stoichiometry N: 2
